Our source for the Kd, koff and kon values is patent US20240376224A1 (University of California, published 2024).

In experiment [1] the target is T1, c-CDCP1-Fc (Cut 3) (human, UniProt Q9H5V8 30-369; Q9H5V8 370-667).
T1 construct: Co-transfection of NTF and CTF-Fc plasmids; not shown: Fc domain
T1 sequence 1: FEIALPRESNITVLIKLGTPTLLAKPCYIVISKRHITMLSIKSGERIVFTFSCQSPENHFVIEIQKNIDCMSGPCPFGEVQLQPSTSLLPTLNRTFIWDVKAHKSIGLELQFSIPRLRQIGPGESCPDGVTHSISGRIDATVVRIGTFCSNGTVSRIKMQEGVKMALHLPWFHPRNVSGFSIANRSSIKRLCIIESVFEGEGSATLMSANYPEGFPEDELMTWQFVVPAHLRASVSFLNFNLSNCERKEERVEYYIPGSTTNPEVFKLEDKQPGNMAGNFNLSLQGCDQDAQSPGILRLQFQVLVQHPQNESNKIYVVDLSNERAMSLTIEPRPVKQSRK
T1 sequence 2: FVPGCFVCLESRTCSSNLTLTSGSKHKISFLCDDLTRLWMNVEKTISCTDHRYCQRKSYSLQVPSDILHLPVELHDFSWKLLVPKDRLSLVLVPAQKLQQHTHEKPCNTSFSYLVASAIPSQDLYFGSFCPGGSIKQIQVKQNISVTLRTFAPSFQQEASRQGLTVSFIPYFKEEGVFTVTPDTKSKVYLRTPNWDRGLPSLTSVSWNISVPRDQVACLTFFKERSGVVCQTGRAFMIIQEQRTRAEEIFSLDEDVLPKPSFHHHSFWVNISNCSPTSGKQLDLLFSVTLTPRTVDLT
In words: BLI (Octet), table of in vitro binding affinities. As to the method:
(§1) BLI experiments were performed using an Octet RED384 instrument (ForteBio). Biotinylated proteins were immobilized on a streptavidin (SA) biosensor and His-tagged proteins were immobilized on a Ni-NTA biosensor. Different concentrations of analyte in PBS pH 7.4+0.05% Tween-20+0.2% BSA (PBSTB) were used as analyte. Affinities (KDS) were calculated from a global fit (1:1) of the data using the Octet RED384 software.
For orientation: In BLI a coated tip is dipped into the sample, and binding shifts an interference pattern.

For experiment [2], the target named is T2, c-CDCP1-Fc (Cut 1) (human, UniProt Q9H5V8 30-365; Q9H5V8 366-667).
T2 construct: Co-transfection of NTF and CTF-Fc plasmids; not shown: Fc domain
T2 sequence 1: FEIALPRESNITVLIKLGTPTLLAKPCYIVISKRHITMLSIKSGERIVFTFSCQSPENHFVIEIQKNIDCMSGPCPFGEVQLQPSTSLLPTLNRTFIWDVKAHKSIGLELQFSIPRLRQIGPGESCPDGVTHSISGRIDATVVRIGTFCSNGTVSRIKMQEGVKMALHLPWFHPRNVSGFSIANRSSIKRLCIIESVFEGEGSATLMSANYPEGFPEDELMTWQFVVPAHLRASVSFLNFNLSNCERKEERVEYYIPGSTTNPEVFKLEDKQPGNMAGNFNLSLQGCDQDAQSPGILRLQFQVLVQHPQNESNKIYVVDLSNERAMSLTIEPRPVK
T2 sequence 2: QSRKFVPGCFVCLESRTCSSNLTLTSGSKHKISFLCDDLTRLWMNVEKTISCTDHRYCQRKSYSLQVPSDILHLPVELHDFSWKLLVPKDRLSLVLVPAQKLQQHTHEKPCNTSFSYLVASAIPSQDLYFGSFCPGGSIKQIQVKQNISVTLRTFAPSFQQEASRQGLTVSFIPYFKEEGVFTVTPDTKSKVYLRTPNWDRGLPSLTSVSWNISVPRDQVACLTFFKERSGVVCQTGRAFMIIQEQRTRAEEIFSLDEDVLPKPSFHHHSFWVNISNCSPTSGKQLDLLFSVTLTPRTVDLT
In words: BLI (Octet), table of in vitro binding affinities. As to the method: as §1

As usually defined, the Kd is the concentration at which binding is half-saturated. Usually koff stands for a measure of how fast the partners let go of each other. A higher koff goes with a short-lived complex. Usually kon stands for a measure of how fast the partners come together. Lower therefore signals slow association.

B1: CL03 IgG (antibody, V domains shown)
VH: EVQLVESGGGLVQPGGSLRLSCAASGFNFSSYSIHWVRQAPGKGLEWVASIYPYSGSTYYADSVKGRFTISADTSKNTAYLQMNSLRAEDTAVYYCARQSHSYYSHTWWVSYGMDYWGQGTLVTVSS
VL: DIQMTQSPSSLSASVGDRVTITCRASQSVSSAVAWYQQKPGKAPKLLIYSASSLYSGVPSRFSGSRSGTDFTLTISSLQPEDFATYYCQQSGQRPITFGQGTKVEIKR
notes: also called IgG CL03
In experiment [1], B1 yielded a Kd of 0.15 nM, a koff of 7.43e-05 s⁻¹ and a kon of 492000 M⁻¹ s⁻¹. In experiment [2], this molecule yielded a Kd of 0.84 nM, an off-rate (koff) of 0.000535 s⁻¹ and a kon of 640000 M⁻¹ s⁻¹.
